Earlier results in PMC5837126.

Target: IL-2Rβγc (intermediate-affinity IL-2R) (Homo sapiens) (UniProt P14784)
UniProt P14784, sequence (P14784 27-240, chain 1 of 2): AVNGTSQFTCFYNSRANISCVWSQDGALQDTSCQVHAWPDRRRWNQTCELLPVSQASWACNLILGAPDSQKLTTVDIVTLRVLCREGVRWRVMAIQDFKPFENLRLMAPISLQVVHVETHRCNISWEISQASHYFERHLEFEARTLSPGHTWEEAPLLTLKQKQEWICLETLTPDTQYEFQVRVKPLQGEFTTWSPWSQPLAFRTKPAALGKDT
UniProt P14784, sequence (P31785 23-262, chain 2 of 2, further chain): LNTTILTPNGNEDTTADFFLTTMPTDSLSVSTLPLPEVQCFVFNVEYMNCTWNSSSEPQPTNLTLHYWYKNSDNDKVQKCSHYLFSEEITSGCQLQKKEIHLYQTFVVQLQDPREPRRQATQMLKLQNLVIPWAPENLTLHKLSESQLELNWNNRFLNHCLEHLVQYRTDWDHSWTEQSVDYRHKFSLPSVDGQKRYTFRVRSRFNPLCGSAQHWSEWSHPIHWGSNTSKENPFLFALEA

Kd: 1 nM
Substance: IL-2 (from UniProt P60568)
